Assay [1] concerns the target T1, HutD (Vibrio cholerae, UniProt Q9KL34).
T1 construct: gene hmuV
Nature of the assay: biochemical.

In assay [2] the target is HutD. Nature of the assay: cross-linking.
For assay [3], the target named is HutD. Nature of the assay: SEC; Superdex 200 Increase 10/300 GL; 250 uM HutD preincubated 1.5 h at 4 °C with 500 uM AMP.PNP; 500 ul injected; 50 mM Tris-HCl pH 8.0, 300 mM NaCl, 5 mM MgCl2; 0.5 ml/min; calibrated with molecular weight standards. On the technique in general: SEC sorts molecules by how far they enter the pores of the column.

The Kd is the equilibrium constant for the complex coming apart. As a reminder, the stoichiometry N is a count of units in the complex or per binding partner.

Sequence of HutD (enzyme) (O52047 whole entry): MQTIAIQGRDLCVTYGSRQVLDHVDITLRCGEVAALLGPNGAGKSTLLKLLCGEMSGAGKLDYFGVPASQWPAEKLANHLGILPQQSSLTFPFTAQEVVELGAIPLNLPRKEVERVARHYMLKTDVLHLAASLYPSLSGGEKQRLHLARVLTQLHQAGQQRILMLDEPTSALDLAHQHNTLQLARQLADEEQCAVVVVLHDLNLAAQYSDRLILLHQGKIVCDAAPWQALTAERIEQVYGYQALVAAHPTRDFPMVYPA
T1 sequence (Q9KL34 whole entry, looked up): as the sequence (O52047 whole entry) above

On to `Nc1ncnc2c1ncn2[C@@H]1O[C@H](COP(=O)(O)OP(=O)(O)NP(=O)(O)O)[C@@H](O)[C@H]1O` [AMP.PNP], for which the dissociation constant Kd in assay [1] was found to be 94 ± 0.024 µM.

Regarding HutD (enzyme), the stoichiometry N in assay [2] and in assay [3] was 2 each time.

For the origin of these results see paper PMC9065009, “Mechanistic insights of ABC importer HutCD involved in heme internalization by Vibrio cholerae” (Scientific Reports, 2022).
